The record followed here is publication PMC4588518.

As usually defined, the stoichiometry N is the number of molecules, sites or subunits per partner or assembly.

For the assay, the target named is LegK4^1–445 (Legionella pneumophila LegK4, residues 1 to 445) (Legionella pneumophila). Nature of the assay: SEC-SAXS. In general terms: SEC sorts molecules by how far they enter the pores of the column.

For “LegK4^1–445 (Legionella pneumophila LegK4, residues 1 to 445) (domain or fragment)”, the stoichiometry N amounted to 2.
